Columns and labels:
[1] = biological target: HLA-B*4403 (human); assay: competition binding assay, purified HLA class I
[2] = biological target: HLA-B*4001 (human); assay: competition binding assay, purified HLA class I

Substance: WEELSML (MAGE2 position 234, 7-mer) (peptide)
- IC50 [1]: 2.01 µM
- IC50 [2]: 10.4 µM
